We go through 15 molecules from patent US20230235075A1 (DYNAMICURE BIOTECHNOLOGY, published 2023).

T1: Human CD93 on the cell surface (human CD93 expressing CHO cells; HUVEC, U937 and KG1a cells) (human, UniProt Q9NPY3 22-652)
T1 construct: whole, on cells; also called hCD93 CHO cells; CHO-hCD93
T1 sequence (looked up): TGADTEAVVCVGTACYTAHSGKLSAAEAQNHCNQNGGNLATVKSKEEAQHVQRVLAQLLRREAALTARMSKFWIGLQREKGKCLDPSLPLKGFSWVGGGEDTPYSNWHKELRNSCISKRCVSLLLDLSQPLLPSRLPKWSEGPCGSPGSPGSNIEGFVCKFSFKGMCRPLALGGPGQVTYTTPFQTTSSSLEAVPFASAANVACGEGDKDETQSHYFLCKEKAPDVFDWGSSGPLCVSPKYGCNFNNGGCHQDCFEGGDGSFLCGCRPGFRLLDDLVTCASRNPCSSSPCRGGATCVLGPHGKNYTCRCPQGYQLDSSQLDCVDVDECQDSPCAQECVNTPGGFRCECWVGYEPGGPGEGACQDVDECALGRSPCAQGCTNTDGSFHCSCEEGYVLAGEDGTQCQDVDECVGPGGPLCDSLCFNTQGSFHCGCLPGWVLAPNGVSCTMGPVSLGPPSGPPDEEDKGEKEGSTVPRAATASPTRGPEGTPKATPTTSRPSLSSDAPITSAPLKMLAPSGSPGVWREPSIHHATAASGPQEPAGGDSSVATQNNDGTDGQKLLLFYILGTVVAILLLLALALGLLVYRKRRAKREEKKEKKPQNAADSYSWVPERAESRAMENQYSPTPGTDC

T2: Human CD93 recombinant protein (Sino Biological Inc, Catalog #12589-H08H) (human, UniProt Q9NPY3 22-580, biotinylated with EZ-LINK NHS-PEG4 biotin in the Octet assays)
T2 construct: also called hCD93; His-tagged human CD93
T2 sequence (looked up): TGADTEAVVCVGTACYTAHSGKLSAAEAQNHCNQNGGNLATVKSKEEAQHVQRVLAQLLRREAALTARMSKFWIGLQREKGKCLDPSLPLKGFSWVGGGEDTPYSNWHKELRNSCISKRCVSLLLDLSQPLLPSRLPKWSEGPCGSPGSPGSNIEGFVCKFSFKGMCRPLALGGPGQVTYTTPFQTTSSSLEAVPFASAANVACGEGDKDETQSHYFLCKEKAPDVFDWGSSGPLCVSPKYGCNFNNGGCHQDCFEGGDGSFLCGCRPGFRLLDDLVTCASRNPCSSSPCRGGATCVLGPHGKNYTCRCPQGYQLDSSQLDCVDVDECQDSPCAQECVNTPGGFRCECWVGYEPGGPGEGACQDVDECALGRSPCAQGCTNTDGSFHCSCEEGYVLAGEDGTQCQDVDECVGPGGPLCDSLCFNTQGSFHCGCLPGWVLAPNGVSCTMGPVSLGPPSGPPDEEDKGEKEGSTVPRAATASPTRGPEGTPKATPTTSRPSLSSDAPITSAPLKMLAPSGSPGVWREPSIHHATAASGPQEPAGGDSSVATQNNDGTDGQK

B1: Humanized 17B10 H1L1 (antibody, mouse IgG1, V domains shown)
VH: QVQLVQSGAEVKKPGSSVKVSCKASGYAFSSYWLNWVRQAPGQGLEWFGRIYPGDGDTDYNGKFKGRVTLTADKSTSTAYMELSSLRSEDTAVYFCVRGDGYWAMDYWGQGTTVTVSS
VL: DIVMTQSPLSLPVTPGEPASISCRFSQSLLHSNGITYLYWYLQKPGQSPQLLIYQMSNLASGVPDRFSGSGSGTDFTLKISRVEAEDVGVYYCAQNLELPWTFGGGTKLEIK
notes: Chimeric Fc: mouse IgG1 CH2 and CH3 domains and human CH1 domains
B2: Humanized 17B10 H1L3 (antibody, mouse IgG1, V domains shown)
VH: QVQLVQSGAEVKKPGSSVKVSCKASGYAFSSYWLNWVRQAPGQGLEWFGRIYPGDGDTDYNGKFKGRVTLTADKSTSTAYMELSSLRSEDTAVYFCVRGDGYWAMDYWGQGTTVTVSS
VL: DIVMTQSPDSLAVSLGERATINCRFSKSLLHSNGITYLYWYQQKPGQPPKLLIYQMSNLASGVPDRFSGSGSGTDFTLTISSLQAEDVAVYYCAQNLELPWTFGGGTKLEIK
B3: Humanized 17B10 H3L1 (antibody, mouse IgG1, V domains shown)
VH: QVQLVQSGPEVKKPGESLKISCKASGYAFSSYWLNWVRQMPGKGLEWMGRIYPGDGDTDYNGKFKGQVTISADKSSGTAYLQLSSLKASDTAVYFCVRGDGYWAMDYWGQGTLVTVSS
VL: DIVMTQSPLSLPVTPGEPASISCRFSQSLLHSNGITYLYWYLQKPGQSPQLLIYQMSNLASGVPDRFSGSGSGTDFTLKISRVEAEDVGVYYCAQNLELPWTFGGGTKLEIK
B4: Humanized 17B10 H3L2 (antibody, mouse IgG1, V domains shown)
VH: QVQLVQSGPEVKKPGESLKISCKASGYAFSSYWLNWVRQMPGKGLEWMGRIYPGDGDTDYNGKFKGQVTISADKSSGTAYLQLSSLKASDTAVYFCVRGDGYWAMDYWGQGTLVTVSS
VL: DIVMTQTPLSLPVTPGEPASISCRFSQSLLHSNGITYLYWYLQKPGQSPQLLIYTMSNLASGVPDRFSGSGSGTDFTLKISRVEAEDVGVYYCAQNLELPWTFGGGTKLEIK
B5: Humanized 17B10 H2L3 (antibody, mouse IgG1, V domains shown)
VH: QVQLVQSGAEVVKSGASVKVSCKASGYAFSSYWLNWVRQAPGQGLEWFGRIYPGDGDTDYNGKFKGRVTLIRDTSTSTVYMELTSLTSEDTAVYYCVRGDGYWAMDYWGQGTLVTVSS
VL: DIVMTQSPDSLAVSLGERATINCRFSKSLLHSNGITYLYWYQQKPGQPPKLLIYQMSNLASGVPDRFSGSGSGTDFTLTISSLQAEDVAVYYCAQNLELPWTFGGGTKLEIK
B6: Humanized 17B10 H2L1 (antibody, mouse IgG1, V domains shown)
VH: QVQLVQSGAEVVKSGASVKVSCKASGYAFSSYWLNWVRQAPGQGLEWFGRIYPGDGDTDYNGKFKGRVTLIRDTSTSTVYMELTSLTSEDTAVYYCVRGDGYWAMDYWGQGTLVTVSS
VL: DIVMTQSPLSLPVTPGEPASISCRFSQSLLHSNGITYLYWYLQKPGQSPQLLIYQMSNLASGVPDRFSGSGSGTDFTLKISRVEAEDVGVYYCAQNLELPWTFGGGTKLEIK
B7: Humanized 17B10 H1L2 (antibody, mouse IgG1, V domains shown)
VH: QVQLVQSGAEVKKPGSSVKVSCKASGYAFSSYWLNWVRQAPGQGLEWFGRIYPGDGDTDYNGKFKGRVTLTADKSTSTAYMELSSLRSEDTAVYFCVRGDGYWAMDYWGQGTTVTVSS
VL: DIVMTQTPLSLPVTPGEPASISCRFSQSLLHSNGITYLYWYLQKPGQSPQLLIYTMSNLASGVPDRFSGSGSGTDFTLKISRVEAEDVGVYYCAQNLELPWTFGGGTKLEIK
B8: 20C7 (antibody, V domains shown)
VH: EVQLQQSGPELVNPGASVKMSCKASGYTFTAYVMHWVKQKPGQGLEWIGYIFPYNDGTEYNEKFKGKATLTSDKSSSTAYMELSSLTSEDSAVYYCARRTDGNPYTMDYWGQGTSVTVSS
VL: DIVMTQSHKFMSTSVGDRVSITCKASQDVSTAVAWYQQKPGQSPKLLIHSASYRYTGVPDRFTGRGSGTDFTFTISSVQAEDLAVYYCQQHYSTPFTFGSGTKLEIK
notes: Mouse hybridoma monoclonal antibody
B9: 17E6 (antibody, V domains shown)
VH: EVQLQQSGPELVKPGASVKMSCKASGYTFTSYVIHWVKQKPGQGLEWIGYINPYSDYTQYNEKFKGKATLTSDKSSSTAYMELSSLTSEDSAVYSCARRADGNPYAMDYWGQGTSVTVSS
VL: DIVMTQSHKFMSTSVGDRVSTTCKASQDVSTAVVWYQQKPGQSPKLLIYSASYRYTGVPDRFTGSGSGTDFTFTITSVQAEDLAVYYCQQHYSTPFTFGSGTKLEIK
notes: as for B8
B10: 19B5 (antibody, V domains shown)
VH: DVNLVESGGGLVKLGGSLKLSCAASGFTFSNYYMSWVRQSPEKRLEWVATISNNGDSTYYLDTVKGRFTISRDSAENTLYLQMSSLISEDTAVYYCTRVGTGFTYWGQGTLVTVSA
VL: DIVLTQSPATLSVTPGDSVSLSCRASQSINNYLHWYQQRSHESPRLLIKFASQSISDIPSRFSGSGSGTDFTLSINSIETEDFGMYFCQQSNSWPLTFGAGTKLELK
notes: as for B8
B11: 16G9 (antibody, V domains shown)
VH: EVQLQQSGPELVKPGASVKMSCKASGYTFTDYYMNWVKQSHGKSLEWIGRVNPNNGGKTYNQKFKGKATLTVDKSLSTAYMQLNSLTSEDSAVYYCARWRLRPVDYGMDYWGQGTSVTVSS
VL: DIVLTQSPASLAVSLGQRATISCRASQSVSTSSYSYMHWYQQKPGQPPKLLIKYASNLESGVPARFSGSGSGTDFTLNIHPVEEEDTATYYCQHSWEIPFTFGSGTKLEIK
notes: as for B8
B12: 5H9 (antibody, IgG2a, V domains shown)
VH: QVQLQQSGPDLVKPGASVKISCKASGYAFSTYWMNWVKQRPGKGLEWIGRIFPGDGDANYNGKFKGKATLTADKSSSTAYMQLSSLTSEDSAVYFCTRTGAAYDFDPFPYWGQGTLVTVSA
VL: DIVMTQAAFSNPVTLGTSASISCSSSKSLLHSNGVTYLYWYLQRPGQSPQLLIYRMSNLASGVPDRFSGSGSGTDFTLRISRVEAEDVGIYYCAQMLERPFTFGSGTKLEIK
notes: also called 5H9 mIgG2a
B13: 17A7 (antibody, V domains shown)
VH: QVQLQQSGPELVKPGASVKISCKGSGYAFSTYWMNWVKQRPGKGLEWIGRIFPGDGDTDYDGKFKGKATLTADKSSNTAYMQLSSLTSEDSAVYFCARTGAAYEFDPFPYWGQGTLVTVSA
VL: DIVMTQAAFSNPVTLGTSASISCSSTKSLLHSSGITYLYWYLQRPGQSPQLLIYRMSNLASGVPDRFSGSGSGTDFTLRISRVEAEDVGVYYCAQMLERPFTFGSGTKLEIK
notes: as for B8
B14: 12H4 (antibody, V domains shown)
VH: EVQLQQSGPELVKPGASVKVSCKASGYTFTDYYIHWVKQRPGQGLEWIGEIYPGSDDAYYNEKFKGKATLTADKSSSTAYMQLSSLTSEDSAVYFCTRETTATAYWGQGTLVTVSA
VL: QIVLTQSPAIMSASPGEKVTITCSASSSVSLIYWFQQKPGTSPKLWIYSTSNLASGVPARFSGSGSGTSYSLTISRMEAEDAATYYCQQRSGYPPTFGGGTKLEIK
notes: as for B8
B15: 19E12 (antibody, V domains shown)
VH: QVQLQQSGAELVRPGASVKLSCKASGYTFTDYEMHWVRQTPVHGLEWIGGIDPETGGTAYNQKFKGKATLTADKSSSTAYMELRSLTSEDSAVYYCTRGAWFAYWGQGTLVTVSA
VL: QAVVTQESALTTSPGETVTLTCRSSTGAVTTSNSANWVQEKPDHLFTGLIGGTNNRAPGVPARFSGSLIGDKAALTITGAQTEDEAIYFCALWYNNHFVFGGGTKLTVL
notes: as for B8

For one experiment, the target named is T1, Human CD93 on the cell surface (human …). In words: FACS, CHO cells overexpressing human CD93. (In general: A flow cytometer gives signals particle by particle.)
Turning to B1, the binding result is reported as “binds”.

Take B2: the binding result is “binds”.

Regarding B3, the binding result was “binds”.

B4: the binding result is “binds”.

For the molecule B5, the binding result was “binds”.

Take B6: the binding result was “binds”.

For the molecule B7, the binding result is recorded as “binds”.

The target is the same in the next experiment. As to the kind of experiment: summary table, column 'Binding' (assay not given).
For B8, the binding result was “binds”.

With B9, the binding result was “binds”.

As for B10, the binding result was “binds”.

Turning to B11, the binding result is “binds”.

Take B12: the binding result is reported as “binds”.

With B13, the binding result is reported as “binds”.

Turning to B14, the binding result is given as “binds”.

Take B15: the binding result was “binds”.

A further experiment has as its target T2, Human CD93 recombinant protein (Sino …). In words: Octet epitope binning on biotinylated human CD93, antibody 10 µg/ml. The protocol:
Anti-CD93 antibody epitope bins were determined using Octet QKe (Fortebio). Human CD93 recombinant protein (Sino Biological Inc, Catalog #12589-H08H) were biotinylated using EZ-LINK NHS-PEG4 biotin (Thermo Fisher Scientific). Streptavidin biosensors tips (Fortebio) were used to capture biotinylated human CD93 protein (300 seconds in 5 μg/ml). The baseline was stabilized for 60 seconds in 1× kinetics buffer (Fortebio) before primary anti-CD93 antibodies (10 μg/ml) were allowed to associate for 300 seconds with captured protein. A panel of secondary anti-CD93 antibodies (10 μg/ml) were then allowed to associate with the antigen and primary antibody complex for additional 300 seconds. Signals were recorded for each binding event and data analysis was performed on ForteBio Data Analysis HT 11.1 software.
On the technique in general: Biolayer interferometry detects binding as a change in optical thickness at a sensor tip.
On to B11, for which the binding result is recorded as “binds”.

Turning to B12, the binding result was “binds”.

Take B15: the binding result was “binds”.
